# Results taken from article PMC9938351.
# What was measured:
# Assay in all cases: ITC
# [1] = biological target: SARS-CoV-2 Ubl1 D110A (SARS-CoV-2)
# [2] = biological target: SARS-CoV-2 Ubl1 E26A (SARS-CoV-2)
# [3] = biological target: SARS-CoV-2 Ubl1 E95A (SARS-CoV-2)
# [4] = biological target: SARS-CoV-2 Ubl1 Y103A (SARS-CoV-2)
# [5] = biological target: SARS-CoV-2 ubiquitin-like domain 1 (Ubl1) of Nsp3 (residues 1–111) (SARS-CoV-2)
Substance,Kd [1] [µM],dH [1] [kcal/mol],stoichiometry N [1],Kd [2] [µM],dH [2] [kcal/mol],stoichiometry N [2],Kd [3] [µM],dH [3] [kcal/mol],stoichiometry N [3],Kd [4] [µM],dH [4] [kcal/mol],stoichiometry N [4],Kd [5] [µM],dH [5] [kcal/mol],stoichiometry N [5]
"SARS-CoV-2 N protein N-terminal domain (NTD, residues 47–174) (from UniProt P0DTC9 47-174) (domain or fragment)",50.8,-2.65,0.64,78.6,-3.37,0.74,53.1,-1.24,0.75,57.7,-0.741,0.57,17,-2.7,0.73
SARS-CoV-2 N-NTD R92A (from UniProt P0DTC9 47-174) (domain or fragment),–,–,–,–,–,–,–,–,–,–,–,–,55.7,-3.18,0.58
